# Measurements published in patent US20260098059A1 (ENDOMET BIOSCIENCES, published 2026).
# Where “and” joins values, the source holds several entries; their conditions need not be identical. Equal entries are not always repeated. Bridges are numbered along the chain shown (N, C = ends). [ ]: non-standard residue; d: D form. The star is where a group is joined. Chg = N[C@H](C(=O)O)C1CCCCC1; Lauroyl = CCCCCCCCCCCC(=O)*; NMeA = CN[C@@H](C)C(=O)O
# T1: β-catenin (UniProt P35222 134-665, limits assumed, biotinylated in the SPR and plate assays)
# T1 construct: also called beta catenin; biotinylated β-catenin
# T1 sequence (looked up): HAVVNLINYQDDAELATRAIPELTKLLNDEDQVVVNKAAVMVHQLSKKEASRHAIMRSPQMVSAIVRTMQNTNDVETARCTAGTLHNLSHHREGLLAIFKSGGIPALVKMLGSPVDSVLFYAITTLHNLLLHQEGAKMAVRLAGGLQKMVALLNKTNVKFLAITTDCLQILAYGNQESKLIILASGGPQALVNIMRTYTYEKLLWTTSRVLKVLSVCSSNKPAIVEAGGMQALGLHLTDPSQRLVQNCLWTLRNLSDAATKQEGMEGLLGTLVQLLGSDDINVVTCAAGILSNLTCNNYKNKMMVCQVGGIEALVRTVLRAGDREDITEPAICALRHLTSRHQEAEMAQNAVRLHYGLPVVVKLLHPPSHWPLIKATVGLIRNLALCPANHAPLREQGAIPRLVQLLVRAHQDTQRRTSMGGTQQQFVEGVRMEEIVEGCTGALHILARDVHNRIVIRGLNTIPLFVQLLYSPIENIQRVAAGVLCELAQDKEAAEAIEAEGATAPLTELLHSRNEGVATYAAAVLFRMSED
# B1: SEQ ID NO: 25 (peptide)
# peptide: KMSRMWLLISFWG
# HELM: PEPTIDE1{K.M.S.R.M.W.L.L.I.S.F.W.G}$PEPTIDE1,PEPTIDE1,1:R3-13:R2$$$V2.0
# SMILES: CC[C@H](C)[C@@H]1NC(=O)[C@H](CC(C)C)NC(=O)[C@H](CC(C)C)NC(=O)[C@H](Cc2c[nH]c3ccccc23)NC(=O)[C@H](CCSC)NC(=O)[C@H](CCCNC(=N)N)NC(=O)[C@H](CO)NC(=O)[C@H](CCSC)NC(=O)[C@@H](N)CCCCNC(=O)CNC(=O)[C@H](Cc2c[nH]c3ccccc23)NC(=O)[C@H](Cc2ccccc2)NC(=O)[C@H](CO)NC1=O
# B2: SEQ ID NO: 26 (peptide)
# peptide: KMWFLISFWG
# HELM: PEPTIDE1{K.M.W.F.L.I.S.F.W.G}$PEPTIDE1,PEPTIDE1,1:R3-10:R2$$$V2.0
# SMILES: CC[C@H](C)[C@@H]1NC(=O)[C@H](CC(C)C)NC(=O)[C@H](Cc2ccccc2)NC(=O)[C@H](Cc2c[nH]c3ccccc23)NC(=O)[C@H](CCSC)NC(=O)[C@@H](N)CCCCNC(=O)CNC(=O)[C@H](Cc2c[nH]c3ccccc23)NC(=O)[C@H](Cc2ccccc2)NC(=O)[C@H](CO)NC1=O
# B3: SEQ ID NO: 471 (peptide)
# peptide: Lauroyl-W[NMeA]QSILDEH[Chg]QKVWG-NH2
# modifications: lactam 8-12; not fully specified; printed as Lauroyl-NH-W-NMeA-QSILDE*H-Chg-QK*VWG-NH2
# B4: SEQ ID NO: 461 (peptide)
# peptide: Lauroyl-W[NMeA]QSILDKH[Chg]QDVW-NH2
# modifications: lactam 8-12; not fully specified; printed as Lauroyl-NH-W-NMeA-QSILDK*H-Chg-QD*VW-NH2
# B5: SEQ ID NO: 1 (peptide)
# peptide: GWWESILDEHVQRVWG
# HELM: PEPTIDE1{[CCCCCCCCCCCCCC(=O)[*:2]].G.W.[meW].E.S.I.L.D.E.H.V.Q.R.V.W.G}$$$$V2.0
# SMILES: CCCCCCCCCCCCCC(=O)NCC(=O)N[C@@H](Cc1c[nH]c2ccccc12)C(=O)N(C)[C@@H](Cc1c[nH]c2ccccc12)C(=O)N[C@@H](CCC(=O)O)C(=O)N[C@@H](CO)C(=O)N[C@H](C(=O)N[C@@H](CC(C)C)C(=O)N[C@@H](CC(=O)O)C(=O)N[C@@H](CCC(=O)O)C(=O)N[C@@H](Cc1c[nH]cn1)C(=O)N[C@H](C(=O)N[C@@H](CCC(N)=O)C(=O)N[C@@H](CCCNC(=N)N)C(=O)N[C@H](C(=O)N[C@@H](Cc1c[nH]c2ccccc12)C(=O)NCC(=O)O)C(C)C)C(C)C)[C@@H](C)CC
# B6: SEQ ID NO: 445 (peptide)
# peptide: AQKILDEHGQRVW
# HELM: PEPTIDE1{[ac].[meA].Q.K.I.L.D.E.H.[O=C([C@@H](N[*:1])C1CCCCC1)[*:2]].Q.R.V.W.[am]}$PEPTIDE1,PEPTIDE1,4:R3-8:R3$$$V2.0
# SMILES: CC[C@H](C)[C@@H]1NC(=O)[C@@H](NC(=O)[C@H](CCC(N)=O)NC(=O)[C@H](C)N(C)C(C)=O)CCCCNC(=O)CC[C@@H](C(=O)N[C@@H](Cc2c[nH]cn2)C(=O)N[C@H](C(=O)N[C@@H](CCC(N)=O)C(=O)N[C@@H](CCCNC(=N)N)C(=O)N[C@H](C(=O)N[C@@H](Cc2c[nH]c3ccccc23)C(N)=O)C(C)C)C2CCCCC2)NC(=O)[C@H](CC(=O)O)NC(=O)[C@H](CC(C)C)NC1=O
# B7: SEQ ID NO: 447 (peptide)
# peptide: WAQKILDEHGQRVW
# HELM: PEPTIDE1{[CCCCCCCCCCCC(=O)[*:2]].W.[meA].Q.K.I.L.D.E.H.[O=C([C@@H](N[*:1])C1CCCCC1)[*:2]].Q.R.V.W.[am]}$PEPTIDE1,PEPTIDE1,5:R3-9:R3$$$V2.0
# SMILES: CCCCCCCCCCCC(=O)N[C@@H](Cc1c[nH]c2ccccc12)C(=O)N(C)[C@@H](C)C(=O)N[C@@H](CCC(N)=O)C(=O)N[C@H]1CCCCNC(=O)CC[C@@H](C(=O)N[C@@H](Cc2c[nH]cn2)C(=O)N[C@H](C(=O)N[C@@H](CCC(N)=O)C(=O)N[C@@H](CCCNC(=N)N)C(=O)N[C@H](C(=O)N[C@@H](Cc2c[nH]c3ccccc23)C(N)=O)C(C)C)C2CCCCC2)NC(=O)[C@H](CC(=O)O)NC(=O)[C@H](CC(C)C)NC(=O)[C@H]([C@@H](C)CC)NC1=O
# B8: SEQ ID NO: 45 (peptide)
# peptide: MWFLISFWAG
# HELM: PEPTIDE1{M.W.F.L.I.S.F.W.[meA].G}$$$$V2.0
# SMILES: CC[C@H](C)[C@H](NC(=O)[C@H](CC(C)C)NC(=O)[C@H](Cc1ccccc1)NC(=O)[C@H](Cc1c[nH]c2ccccc12)NC(=O)[C@@H](N)CCSC)C(=O)N[C@@H](CO)C(=O)N[C@@H](Cc1ccccc1)C(=O)N[C@@H](Cc1c[nH]c2ccccc12)C(=O)N(C)[C@@H](C)C(=O)NCC(=O)O
# B9: SEQ ID NO: 448 (peptide)
# peptide: AQKILDEHGQRVWR
# HELM: PEPTIDE1{[ac].[meA].Q.K.I.L.D.E.H.[O=C([C@@H](N[*:1])C1CCCCC1)[*:2]].Q.R.V.W.R.[am]}$PEPTIDE1,PEPTIDE1,4:R3-8:R3$$$V2.0
# SMILES: CC[C@H](C)[C@@H]1NC(=O)[C@@H](NC(=O)[C@H](CCC(N)=O)NC(=O)[C@H](C)N(C)C(C)=O)CCCCNC(=O)CC[C@@H](C(=O)N[C@@H](Cc2c[nH]cn2)C(=O)N[C@H](C(=O)N[C@@H](CCC(N)=O)C(=O)N[C@@H](CCCNC(=N)N)C(=O)N[C@H](C(=O)N[C@@H](Cc2c[nH]c3ccccc23)C(=O)N[C@@H](CCCNC(=N)N)C(N)=O)C(C)C)C2CCCCC2)NC(=O)[C@H](CC(=O)O)NC(=O)[C@H](CC(C)C)NC1=O
# B10: SEQ ID NO: 467 (peptide)
# peptide: Lauroyl-W[NMeA]QSILDEH[Chg]QKVW-NH2
# modifications: lactam 8-12; not fully specified; printed as Lauroyl-NH-W-NMeA-QSILDE*H-Chg-QK*VW-NH2
# B11: SEQ ID NO: 452 (peptide)
# peptide: WAQKILNDHGQAV
# HELM: PEPTIDE1{[ac].W.[meA].Q.K.I.L.N.D.H.[O=C([C@@H](N[*:1])C1CCCCC1)[*:2]].Q.A.V.[am]}$PEPTIDE1,PEPTIDE1,5:R3-9:R3$$$V2.0
# SMILES: CC[C@H](C)[C@@H]1NC(=O)[C@@H](NC(=O)[C@H](CCC(N)=O)NC(=O)[C@H](C)N(C)C(=O)[C@H](Cc2c[nH]c3ccccc23)NC(C)=O)CCCCNC(=O)C[C@@H](C(=O)N[C@@H](Cc2c[nH]cn2)C(=O)N[C@H](C(=O)N[C@@H](CCC(N)=O)C(=O)N[C@@H](C)C(=O)N[C@H](C(N)=O)C(C)C)C2CCCCC2)NC(=O)[C@H](CC(N)=O)NC(=O)[C@H](CC(C)C)NC1=O
# Biological target: T1, β-catenin
# Test: SPR (Biacore)
# Procedure: Biotinylated protein (beta catenin) was immobilized on a high-affinity streptavidin (SA) sensor chip (GE). Peptide at increasing concentrations was flowed over in HBS EP+ buffer at room temperature according to manufacturer's instructions. The maximum binding capacity of the surface (response at saturation) was calculated using the Biacore® system (GE) instructions and binding was measured at each concentration as a data point. The binding levels were determined over a range of analyte concentrations of at least from 20% to 80% saturation of the surface. On rates, off rates, and KD were calculated using Biacore® Insight Evaluation Software software (GE).
row,Kd [nM],Binder
1,112,B1
2,110,B2
3,1370,H-MWESILDEHVQRVWG-OH [SEQ ID NO: 22]

# Biological target: T1, β-catenin
# Test: competitive FP
# Method in brief: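 Competitive fluorescence polarization with inhibitor peptide serially diluted from 10 nM to 30 uM; polarization read at 470 nm excitation, 520 nm emission. Experiments performed three times.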
row,Kd,Binder
1,≤ 400 nM,B3
2,≤ 400 nM,B4
3,≤ 400 nM,WPQSILDEHGQKVW (not fully specified; Lauroyl-NH-WPQSILDE*H-Chg-QK*VW-NH2) [SEQ ID NO: 469]
4,≤ 400 nM,B5
5,> 10000 nM and ≤ 30000 nM,H-MSRMWYLISFWG-OH [SEQ ID NO: 66]
6,≤ 400 nM,H-MSRMWFLISFRG-OH [SEQ ID NO: 69]
7,≤ 400 nM,B6
8,≤ 400 nM,B7
9,≤ 400 nM,Lauroyl-W[NMeA]QKILNDH[Chg]QAVW-NH2 (lactam 4-8) [SEQ ID NO: 459]
10,> 400 nM and ≤ 1000 nM,B8
11,> 400 nM and ≤ 1000 nM,H-MWFLISFWEG-OH [SEQ ID NO: 47]
12,> 400 nM and ≤ 1000 nM,"Lauroyl-W[NMeA]QKILDEH[Chg]EDVWK-NH2 (lactam 11-15, 4-8 (inferred)) [SEQ ID NO: 465]"
13,≤ 400 nM,WPQSILDKHGQDVW (not fully specified; Lauroyl-NH-WPQSILDK*H-Chg-QD*VW-NH2) [SEQ ID NO: 463]
14,≤ 400 nM,B9
15,≤ 400 nM,B10
16,> 400 nM and ≤ 1000 nM,B11

# Biological target: T1, β-catenin
# Test: cell-based or functional assay
Wnt Reporter EC50,"Proliferation IC50, Wnt dependent cells [µM]",Binder
≤ 7.5 µM,,B3
> 7.5 µM and ≤ 15 µM,,B1
≤ 7.5 µM,,B4
≤ 7.5 µM,,WPQSILDEHGQKVW (not fully specified; Lauroyl-NH-WPQSILDE*H-Chg-QK*VW-NH2) [SEQ ID NO: 469]
,18.5,B5
> 7.5 µM and ≤ 15 µM,,H-MSRMWYLISFWG-OH [SEQ ID NO: 66]
> 30 µM,,H-MSRMWFLISFRG-OH [SEQ ID NO: 69]
> 22.5 µM and ≤ 30 µM,,B6
≤ 7.5 µM,,B7
≤ 7.5 µM,,Lauroyl-W[NMeA]QKILNDH[Chg]QAVW-NH2 (lactam 4-8) [SEQ ID NO: 459]
> 7.5 µM and ≤ 15 µM,,B2
> 30 µM,,H-MWESILDEHVQRVWG-OH [SEQ ID NO: 22]
≤ 7.5 µM,,B8
≤ 7.5 µM,,H-MWFLISFWEG-OH [SEQ ID NO: 47]
≤ 7.5 µM,,"Lauroyl-W[NMeA]QKILDEH[Chg]EDVWK-NH2 (lactam 11-15, 4-8 (inferred)) [SEQ ID NO: 465]"
≤ 7.5 µM,,WPQSILDKHGQDVW (not fully specified; Lauroyl-NH-WPQSILDK*H-Chg-QD*VW-NH2) [SEQ ID NO: 463]
> 30 µM,,B9
≤ 7.5 µM,,B10
> 15 µM and ≤ 22.5 µM,,B11
